Values quoted from earlier work as cited in paper PMC12005733.

Target: Calbindin D9k C-terminal split part C-terminal half (Bos taurus) (UniProt P02633)

Kd: 3 pM
Substance: Calbindin D9k N-terminal split part N-terminal half (from UniProt P02633)
